# Assay results published in patent publication US20110117113A1, “IMMUNOGLOBULIN SINGLE VARIABLE DOMAIN DIRECTED AGAINST HUMAN CXCR4 AND OTHER CELL ASSOCIATED PROTEINS AND METHODS TO GENERATE THEM” (priority 2009, published 2011).
# T1: CXCR4 mutation library clone 2834 (E179V, G258E) (human, UniProt P61073 1-352)
# T1 chain: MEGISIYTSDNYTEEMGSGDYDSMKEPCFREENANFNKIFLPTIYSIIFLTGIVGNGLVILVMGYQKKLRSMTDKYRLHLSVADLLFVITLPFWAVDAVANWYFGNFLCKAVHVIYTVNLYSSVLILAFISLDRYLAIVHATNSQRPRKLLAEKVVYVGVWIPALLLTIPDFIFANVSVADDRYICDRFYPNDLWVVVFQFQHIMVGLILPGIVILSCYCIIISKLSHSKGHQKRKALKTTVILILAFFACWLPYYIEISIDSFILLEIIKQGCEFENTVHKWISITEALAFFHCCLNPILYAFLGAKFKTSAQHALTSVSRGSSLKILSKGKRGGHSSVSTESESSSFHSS
# T2: CXCR4 mutation library clone 414 (C218R, E179V, S351T) (human, UniProt P61073 1-352)
# T2 chain: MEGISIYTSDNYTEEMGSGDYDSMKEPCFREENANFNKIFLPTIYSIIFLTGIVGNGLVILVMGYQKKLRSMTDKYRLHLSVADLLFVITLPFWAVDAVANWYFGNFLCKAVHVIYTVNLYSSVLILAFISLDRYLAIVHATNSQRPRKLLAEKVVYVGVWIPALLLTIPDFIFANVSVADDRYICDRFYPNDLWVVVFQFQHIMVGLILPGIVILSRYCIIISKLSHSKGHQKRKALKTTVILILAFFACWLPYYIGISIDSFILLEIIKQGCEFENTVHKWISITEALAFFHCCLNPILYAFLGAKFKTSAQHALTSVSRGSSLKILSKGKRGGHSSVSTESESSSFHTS
# T3: CXCR4 mutation library clone 1057 (K230E, S178R) (human, UniProt P61073 1-352)
# T3 chain: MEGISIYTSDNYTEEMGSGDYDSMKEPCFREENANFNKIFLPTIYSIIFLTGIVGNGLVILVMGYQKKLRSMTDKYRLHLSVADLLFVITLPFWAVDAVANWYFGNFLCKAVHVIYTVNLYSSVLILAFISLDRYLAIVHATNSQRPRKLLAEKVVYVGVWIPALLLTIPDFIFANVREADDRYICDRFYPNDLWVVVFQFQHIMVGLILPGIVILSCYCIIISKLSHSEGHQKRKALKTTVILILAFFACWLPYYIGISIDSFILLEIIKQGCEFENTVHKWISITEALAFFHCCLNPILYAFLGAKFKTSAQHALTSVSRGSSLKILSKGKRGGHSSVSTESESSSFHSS
# T4: CXCR4 mutation library clone 709 (P163L, S178I) (human, UniProt P61073 1-352)
# T4 chain: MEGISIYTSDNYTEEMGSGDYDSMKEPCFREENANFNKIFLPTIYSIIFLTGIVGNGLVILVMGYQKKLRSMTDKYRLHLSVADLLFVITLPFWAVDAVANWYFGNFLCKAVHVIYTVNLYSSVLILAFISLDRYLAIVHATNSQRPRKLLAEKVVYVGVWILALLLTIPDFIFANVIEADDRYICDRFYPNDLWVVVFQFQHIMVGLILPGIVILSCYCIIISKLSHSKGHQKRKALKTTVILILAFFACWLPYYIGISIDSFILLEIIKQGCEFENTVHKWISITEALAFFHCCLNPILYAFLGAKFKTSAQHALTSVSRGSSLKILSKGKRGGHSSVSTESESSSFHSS
# Columns and labels:
# [1] = target: all CXCR4 library clones containing a mutation at E277; assay: immunofluorescence, high stringency, average over all clones with a mutation at E277
# [2] = target: T5, CXCR4 mutation library clone 914 (N192K) (human, UniProt P61073 1-352); assay: immunofluorescence, high stringency, average for residue N192 (one clone)
# [3] = target: CXCR4 mutation library clone 2396 (S178C) (human, UniProt P61073 1-352); assay: immunofluorescence on HEK-293T expressing the clone, normalised to wild type
# [4] = target: T1, CXCR4 mutation library clone 2834 …; assay: as above
# [5] = target: T2, CXCR4 mutation library clone 414 …; assay: as above
# [6] = target: T5, CXCR4 mutation library clone 914 (N192K); assay: as above
# [7] = target: T3, CXCR4 mutation library clone 1057 …; assay: as above
# [8] = target: T4, CXCR4 mutation library clone 709 …; assay: as above
# [9] = target: all CXCR4 library clones containing a mutation at F189; assay: immunofluorescence, average over all clones with a mutation at F189
binder,measurement,setting,value
Nanobody 238D2 (VHH) VHH: EVQLVESGGGLVQTGGSLRLSCAASGFTFSSYAMSWVRQAPGKGLEWVSGIKSSGDSTRYAGSVKGRFTISRDNAKNMLYLQMYSLKPEDTAVYYCAKSRVSRTGLYTYDNRGQGTQVTVSS,average nanobody reactivity,[1],27.5%
same,average nanobody reactivity,[2],8.3%
same,% immunofluorescence,[3],44.9%
same,% immunofluorescence,[4],84.6%
same,% immunofluorescence,[5],71.1%
same,% immunofluorescence,[6],8.3%
same,% immunofluorescence,[7],54.6%
same,% immunofluorescence,[8],64.1%
same,average nanobody reactivity,[9],-0.9%
